This is an account of results in patent publication US20110117113A1, “IMMUNOGLOBULIN SINGLE VARIABLE DOMAIN DIRECTED AGAINST HUMAN CXCR4 AND OTHER CELL ASSOCIATED PROTEINS AND METHODS TO GENERATE THEM” (priority 2009, published 2011).

Experiment [1] addresses T1, CXCR4 mutant 2 (V196E) (Homo sapiens, UniProt P61073, V196E).
T1 construct: expressed in transfected cells; host or cells: Hek293T, transient, pcDNA3.1
Nature of the experiment: Footprint assay, flow cytometry binding to CXCR4 V196E on Hek293T cells. The following applies: Myc-tag detection, 10 nM and 100 nM Nanobody, average n = 3, relative to hCXCR4. An excerpt: Based on the data from example 1.8, we introduced 3 single point-mutations in ECL2 of CXCR4 that allowed to discriminate between 238D2 and 238D4-like epitopes: V196E (specifically disturbing D2 binding)-SEQ ID NO: 20, D187V (specifically disturbing D4 binding)-SEQ ID NO: 21, F189V (disturbing binding of both D2 and D4)-SEQ ID NO: 19. […] For the epitope mapping, transient transfections of the three CXCR4 mutants and wildtype human CXCR4 in the pcDNA3.1 vector were done in Hek293T cells, after which Nanobody binding of different families was assessed by flow cytometry using detection of the Myc-tag, followed by secondary anti-mouse PE. Two concentrations of Nanobody were tested, 10 nM and 100 nM, and experiment was repeated with essentially the same results. Binding of the Nanobodies to HEK293T hCXCR4 cells was used for normalization using the following formulas:
Percentage of binding to the mutant receptors was calculated for each Nanobody concentration, and a position was considered as critical when less than 25% residual binding (average of n=3) was observed (Table C-5). […] Nanobodies could be grouped according to their different binding patterns, not only in “238D2-like” or “epitope A binders” and “238D4-like” or “epitope B binders” but also into other new groups.
For orientation: Flow cytometry measures light scatter and fluorescence of single cells or particles in a stream.

Experiment [2] has as its target all CXCR4 library clones containing a mutation at F189. Nature of the experiment: immunofluorescence, average over all clones with a mutation at F189.
In experiment [3] the target is T2, CXCR4 mutation library clone 709 (P163L, S178I) (human, UniProt P61073 1-352).
T2 chain: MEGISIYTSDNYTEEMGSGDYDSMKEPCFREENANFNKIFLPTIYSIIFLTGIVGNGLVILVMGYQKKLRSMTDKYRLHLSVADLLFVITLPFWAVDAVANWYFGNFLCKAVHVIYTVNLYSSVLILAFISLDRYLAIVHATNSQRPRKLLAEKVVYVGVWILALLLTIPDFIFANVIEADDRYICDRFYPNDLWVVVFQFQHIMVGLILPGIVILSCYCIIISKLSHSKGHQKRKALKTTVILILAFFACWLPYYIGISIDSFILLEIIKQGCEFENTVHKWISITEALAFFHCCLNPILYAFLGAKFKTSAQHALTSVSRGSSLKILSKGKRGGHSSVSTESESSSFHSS
Nature of the experiment: immunofluorescence on HEK-293T expressing the clone, normalised to wild type.

In experiment [4] the target is T3, CXCR4 mutation library clone 1057 (K230E, S178R) (human, UniProt P61073 1-352).
T3 chain: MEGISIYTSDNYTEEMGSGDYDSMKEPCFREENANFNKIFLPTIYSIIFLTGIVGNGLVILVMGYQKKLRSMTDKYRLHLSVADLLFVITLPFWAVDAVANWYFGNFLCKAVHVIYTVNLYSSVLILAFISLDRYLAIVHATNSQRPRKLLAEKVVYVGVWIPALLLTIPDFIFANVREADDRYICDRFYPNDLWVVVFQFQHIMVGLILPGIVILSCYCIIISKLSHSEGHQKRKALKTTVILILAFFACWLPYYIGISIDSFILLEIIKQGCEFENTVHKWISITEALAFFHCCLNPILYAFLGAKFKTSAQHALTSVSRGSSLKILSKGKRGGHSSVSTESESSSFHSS
The experiment is described as above.

Experiment [5] deals with T4, CXCR4 mutation library clone 2834 (E179V, G258E) (human, UniProt P61073 1-352).
T4 chain: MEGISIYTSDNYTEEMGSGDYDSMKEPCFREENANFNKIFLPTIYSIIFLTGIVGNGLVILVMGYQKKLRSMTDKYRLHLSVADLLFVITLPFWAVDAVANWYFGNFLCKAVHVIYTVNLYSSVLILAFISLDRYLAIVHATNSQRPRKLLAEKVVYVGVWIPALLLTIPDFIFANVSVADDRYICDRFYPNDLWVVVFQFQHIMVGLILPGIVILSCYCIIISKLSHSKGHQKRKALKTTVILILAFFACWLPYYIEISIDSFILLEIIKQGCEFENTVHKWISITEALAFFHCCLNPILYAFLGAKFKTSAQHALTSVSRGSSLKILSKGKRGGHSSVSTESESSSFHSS
The experiment is described as above.

For experiment [6], the target named is CXCR4 mutation library clone 1129 (F189V) (human, UniProt P61073 1-352). The experiment is described as above.
Experiment [7] concerns the target T5, CXCR4 mutation library clone 913 (F189S, K308R) (human, UniProt P61073 1-352).
T5 chain: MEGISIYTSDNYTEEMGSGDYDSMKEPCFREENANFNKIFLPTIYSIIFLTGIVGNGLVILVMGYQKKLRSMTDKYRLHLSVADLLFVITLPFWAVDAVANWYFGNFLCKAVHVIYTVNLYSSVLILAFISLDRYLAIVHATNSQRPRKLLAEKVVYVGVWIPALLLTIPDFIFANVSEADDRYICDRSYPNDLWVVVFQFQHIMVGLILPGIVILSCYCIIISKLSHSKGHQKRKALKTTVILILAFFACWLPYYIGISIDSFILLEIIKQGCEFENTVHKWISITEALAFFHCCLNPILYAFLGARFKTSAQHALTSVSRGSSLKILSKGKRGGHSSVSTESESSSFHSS
The experiment is described as above.

In experiment [8] the target is CXCR4 mutation library clone 2184 (P191T) (human, UniProt P61073 1-352). The experiment is described as above.
For experiment [9], the target named is CXCR4 mutation library clone 914 (N192K) (human, UniProt P61073 1-352). The description is as above.
Experiment [10] addresses CXCR4 mutation library clone 3622 (E277G) (human, UniProt P61073 1-352). The description is as above.

T1 sequence (P61073 whole entry V196E): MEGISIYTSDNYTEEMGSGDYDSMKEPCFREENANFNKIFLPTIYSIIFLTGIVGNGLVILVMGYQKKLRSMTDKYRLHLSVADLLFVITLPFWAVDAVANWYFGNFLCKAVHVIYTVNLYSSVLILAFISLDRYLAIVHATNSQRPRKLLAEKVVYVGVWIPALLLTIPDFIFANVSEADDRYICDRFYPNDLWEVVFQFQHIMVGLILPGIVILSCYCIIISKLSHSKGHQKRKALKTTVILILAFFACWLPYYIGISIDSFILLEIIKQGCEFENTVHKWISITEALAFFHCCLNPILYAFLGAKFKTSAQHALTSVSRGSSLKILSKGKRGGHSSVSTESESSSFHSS

B1: 238D2: monovalent anti CXCR4 Nanobody, SEQ ID NO: 2 (protein)
VHH: EVQLVESGGGLVQTGGSLRLSCAASGFTFSSYAMSWVRQAPGKGLEWVSGIKSSGDSTRYAGSVKGRFTISRDNAKNMLYLQMYSLKPEDTAVYYCAKSRVSRTGLYTYDNRGQGTQVTVSS
modifications: Nanobody
On to B1, for which the “Hek293T V196E binding” value in [1] was “− (<=25% binding to mutant rel. to hCXCR4)”.

B2: Nanobody 238D4 (VHH)
VHH: EVQLMESGGGLVQAGGSLRLSCAASGRTFNNYAMGWFRRAPGKEREFVAAITRSGVRSGVSAIYGDSVKDRFTISRDNAKNTLYLQMNSLKPEDTAVYTCAASAIGSGALRRFEYDYSGQGTQVTVSS
For the molecule B2, in experiment [2], the average nanobody reactivity turned out to be 0.2%. Further, the “% immunofluorescence” value in experiment [3] is 30%; in experiment [4], 11.4%; in experiment [5], 19.5%; in experiment [6] it was 5.2%; in experiment [7], -16.9%; in experiment [8], 124%. Moreover, the “% immunofluorescence” value in experiment [9] turned out to be 55.8%; in experiment [10], 52.5%.
